Consider 2 substances from article PMC10374969, “SVCT2/SLC23A2 is a sodium-dependent urate transporter: functional properties and practical application” (The Journal of Biological Chemistry, 2023).

Series [1] concerns T1, O=c1[nH]c(=O)c2[nH]c(=O)[nH]c2[nH]1.
T1 construct: full-length wild type, 650 aa, C-terminal EGFP tag (pEGFP-N1), transiently expressed in HEK293 cells
In words: cells, lysate or membranes. Type of series: cell-based, Homo sapiens. The settings on record: pH 10, Na+ Krebs-Ringer buffer, 37 °C, 5 min, 0-3 mM urate (not saturated), labelled compound.

The test system of series [2] is T2, O=c1[nH]c(=O)c2[nH]c(=O)[nH]c2[nH]1.
T2 construct: full-length, 648 aa, C-terminal EGFP tag (pEGFP-N1), transiently expressed in HEK293 cells
Briefly: cells, lysate or membranes. The series is classed as cell-based, Mus musculus. The settings on record: pH 10, Na+ Krebs-Ringer buffer, 37 °C, 5 min, 0-3 mM urate (not saturated), labelled compound.

The Km is the substrate concentration at which the rate is half of its maximum. For the substance “human SVCT2 (SVCT2/SLC23A2) (Homo sapiens)”, in series [1], the Michaelis constant (Km) was determined as 3.86 mM.
Regarding “mouse Svct2 (Svct2/Slc23a2) (Mus musculus)”, the Km in series [2] was 3.16 mM.
